Legend:
pediatric patients = details: human, in vivo; cited from earlier work
[1] = tested on: CF patient sputum on wild type rat trachea; assay: CF sputum transport ex vivo on excised rat trachea (μOCT); parameters: species or system human sputum; details: sputum treated 2 hrs; ORP100S 3 mM, DTT 1.6 mM, DNase 10 or 25 μg/ml; PBS 0.97±0.17
Protocol: To determine the effect of ORP100S on CF sputum transportability, sputum specimens spontaneously expectorated from 4 CF patients hospitalized for pulmonary exacerbation were collected and stored at 4° C. before being divided into 200 μL aliquots and treated with ORP100S (3 mM), PBS, DTT (1.6 mM), or DNase (10 or 25 μg/ml) on the day of or day following collection. Upon treatment, sputum aliquots were placed in a 37° C. water bath for 2 hrs and then applied (3 μl per sample) for μOCT imaging to the distal end of trachea excised from adult non-CF rats. Trachea were washed 2× with 500 μl of PBS before sputum addition. Sample conditions were applied in triplicate in random order at distinct anatomic locations—2 washes using 500 μl of PBS were performed between each sample addition—and at least 3 images were collected from each region of interest. Confirmation of trachea viability was obtained by imaging with PBS upon completion of the experiment.
One-micron resolution spectral domain μOCT was used to obtain measurements of mucociliary transport (MCT) rate and ciliary beat frequency (CBF) in HBE monolayers and of MCT rate of sputum ex vivo. This first-in-kind, high-speed (40 frames per second, 512 lines per frame) microscopic reflectance imaging modality enables simultaneous anatomic imaging in cell cultures and intact tissues that readily distinguishes the properties of CF compared to normal epithelia (Liu L, Chu K K, Houser G H, Diephuis B J, Li Y, Wilsterman E J, Shastry S, Dierksen G, Birket S E, Mazur M, et al., 2013, Method for quantitative study of airway functional microanatomy using micro-optical coherence tomography, PLoS One 8(1):e54473; Tuggle K L, Birket S E, Cui X, Hong J, Warren J, Reid L, Chambers A, Ji D, Gamber K, Chu K K, et al., 2014, Characterization of defects in ion transport and tissue development in Cystic Fibrosis Transmembrane Conductance Regulator (CFTR)-knockout rats. PLoS One 9(3):e91253). In addition to MCT rate and CBF, μOCT also has the capability to assess physical characteristics of the airway surface liquid. Images were captured, and MCT rate and CBF calculated, as described in the preceding references.
The effect of ORP100S on mucus clearance using intact rat trachea, which include the complexities of the airway surface such as gland expression of a fully differentiated mucosal surface, was further evaluated. […] MCT was measured by projecting a cross-sectional line through the mucus through time, with the slope of the particle trajectories indicating velocity. […]

B1: DNase: recombinant human DNase I (protein, UniProt P24855 23-282, looked up)
Deoxyribonuclease-1: LKIAAFNIQTFGETKMSNATLVSYIVQILSRYDIALVQEVRDSHLTAVGKLLDNLNQDAPDTYHYVVSEPLGRNSYKERYLFVYRPDQVSAVDSYYYDDGCEPCGNDTFNREPAIVRFFSRFTEVREFAIVPLHAAPGDAVAEIDALYDVYLDVQEKWGLEDVMLMGDFNAGCSYVRPSQWSSIRLWTSPTFQWLIPDSADTTATPTHCAYDRIVVAGMLLRGAVVPDSALPFNFQAAYGLSDQLAQAISDHYPVEVMLK
Pediatric patients
  pediatric patients with clinical deterioration in lung function: 6-30%
[1]
  MCT rate of treated sputum: 2.30±0.28 mm/min
